Data published in patent US20260374880 (published 2026).
Where a chain is given by its changes, count along the chain named. Where “and” joins values, the source holds several entries; their conditions need not be identical. Equal entries are not always repeated. Values belong to the binder of their own block, whether it stands above or below them.

What was measured:
[1] = target: T1, human TGFbR1 ECD-133-myc(His)6 (human); test: BLI
T1 chain: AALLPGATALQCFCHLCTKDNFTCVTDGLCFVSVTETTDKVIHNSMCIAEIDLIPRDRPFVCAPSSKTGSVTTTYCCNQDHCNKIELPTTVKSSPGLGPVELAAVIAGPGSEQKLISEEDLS

[2] = target: T2, murine TGFbR1 ECD-133-myc(His)6 (mouse, UniProt Q64729); test: BLI
T2 chain: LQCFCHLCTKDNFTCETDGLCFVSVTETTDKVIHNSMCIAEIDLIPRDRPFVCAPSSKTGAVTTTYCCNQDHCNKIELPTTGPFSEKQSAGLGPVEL

[3] = target: T1, human TGFbR1 ECD-133-myc(His)6; test: SPR
[4] = target: T3, human TGFbR1 ECD-133-huFc (human); test: BLI
T3 chain: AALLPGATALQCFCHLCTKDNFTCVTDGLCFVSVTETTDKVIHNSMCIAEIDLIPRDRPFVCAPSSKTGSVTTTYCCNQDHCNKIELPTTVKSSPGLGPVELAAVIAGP

[5] = target: T1, human TGFbR1 ECD-133-myc(His)6; test: BLI
TGFbR1 ECD G132A = target: T4, TGFbR1 ECD G132A (human); test: ELISA
T4 chain: T3 chain with G108A

[6] = target: T1, human TGFbR1 ECD-133-myc(His)6; test: ELISA
TGFbR1 ECD V129G = target: T5, TGFbR1 ECD V129G (human); test: ELISA
T5 chain: T3 chain with V105G

TGFbR1 ECD P133A = target: T6, TGFbR1 ECD P133A (human); test: ELISA
T6 chain: T3 chain with P109A

[7] = target: T7, human TGFbR1 ECD 33-125-myc(His)6 (human); test: ELISA
T7 chain: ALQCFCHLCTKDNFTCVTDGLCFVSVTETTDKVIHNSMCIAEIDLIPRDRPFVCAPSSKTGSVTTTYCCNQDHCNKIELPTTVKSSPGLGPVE

TGFbR1 ECD I130G = target: T8, TGFbR1 ECD I130G (human); test: ELISA
T8 chain: T3 chain with I106G

TGFbR1 ECD L126A = target: T9, TGFbR1 ECD L126A (human); test: ELISA
T9 chain: T3 chain with L102A

[8] = target: T10, endogenous TGFbR1 on cells (human); test: FACS, RWPE cells
T10 chain: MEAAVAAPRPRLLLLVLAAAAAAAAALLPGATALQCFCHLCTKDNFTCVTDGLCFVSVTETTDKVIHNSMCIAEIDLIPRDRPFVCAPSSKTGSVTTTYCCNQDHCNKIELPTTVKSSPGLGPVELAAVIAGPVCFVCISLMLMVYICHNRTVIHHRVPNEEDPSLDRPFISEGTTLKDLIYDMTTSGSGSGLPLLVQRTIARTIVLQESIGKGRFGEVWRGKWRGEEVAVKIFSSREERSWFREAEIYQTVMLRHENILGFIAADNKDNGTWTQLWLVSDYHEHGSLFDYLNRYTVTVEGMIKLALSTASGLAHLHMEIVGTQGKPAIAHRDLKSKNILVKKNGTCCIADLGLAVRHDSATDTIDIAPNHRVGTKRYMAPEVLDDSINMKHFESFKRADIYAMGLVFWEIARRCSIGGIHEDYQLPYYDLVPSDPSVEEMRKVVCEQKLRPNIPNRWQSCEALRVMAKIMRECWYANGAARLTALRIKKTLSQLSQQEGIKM

[9] = target: T10, endogenous TGFbR1 on cells; test: FACS, PC-3U cells
[10] = target: T1, human TGFbR1 ECD-133-myc(His)6; test: SPR, biotinylated mAb
[11] = target: T1, human TGFbR1 ECD-133-myc(His)6; test: BLI
[12] = target: T3, human TGFbR1 ECD-133-huFc; test: ELISA

B1: mAb #19 murine chimeric IgG1 (antibody, V domains shown)
VH: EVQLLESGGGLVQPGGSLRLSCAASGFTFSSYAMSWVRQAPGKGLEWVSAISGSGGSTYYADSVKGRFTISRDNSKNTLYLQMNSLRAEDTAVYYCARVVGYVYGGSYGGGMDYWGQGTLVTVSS
VL: DIQMTQSPSSLSASVGDRVTITCRASQSISSYLNWYQQKPGKAPKLLIYAASSLQSGVPSRFSGSGSGTDFTLTISSLQPEDFATYYCQQGYGPLTFGQGTKLEIK
Kd [1]: 3.74 nM
Kd [2]: 18 nM
Kd [3]: 5.6 nM and 6.5 nM
Kd [4]: 13 nM
Kd [5]: 3.7 nM
binding result (TGFbR1 ECD G132A): no binding
IC50 [6]: 0.104 nM
binding result (TGFbR1 ECD V129G): no binding
binding result (TGFbR1 ECD P133A): no binding
binding result [7]: no binding
binding result (TGFbR1 ECD I130G): no binding
binding result (TGFbR1 ECD L126A): no binding
Kd [8]: 7.81 nM
Kd [9]: 10.7 nM
Kd [10]: 2.5 nM and 2.3 nM and 1.8 nM

B3: mAb #19 human IgG1-LALA (antibody, V domains shown)
VH: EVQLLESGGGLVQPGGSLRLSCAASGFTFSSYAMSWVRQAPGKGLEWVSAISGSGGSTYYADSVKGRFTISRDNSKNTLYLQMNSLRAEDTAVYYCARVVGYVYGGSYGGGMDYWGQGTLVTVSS
VL: B1 VL
Kd [5]: 5.9 nM
IC50 [6]: 0.139 nM

B5: Antibody 19 (parental) (antibody, V domains shown)
VH: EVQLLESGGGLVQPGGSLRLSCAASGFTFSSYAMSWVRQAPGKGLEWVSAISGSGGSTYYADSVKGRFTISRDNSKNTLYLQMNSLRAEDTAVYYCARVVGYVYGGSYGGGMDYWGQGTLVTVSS
VL: B1 VL
Kd [11]: 22 nM
EC50 [12]: 0.139 µg/mL

B7: YU771-E01 (antibody, V domains shown)
VH: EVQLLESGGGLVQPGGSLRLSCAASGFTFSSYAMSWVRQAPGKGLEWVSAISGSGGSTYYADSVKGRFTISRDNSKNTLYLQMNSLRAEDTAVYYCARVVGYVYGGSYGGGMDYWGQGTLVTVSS
VL: B1 VL with Q27E, A50G, S53F, S56W
Kd [11]: 8.9 nM
EC50 [12]: 0.0231 µg/mL

B8: YU772-D10_VH-YU772-C01_VL (antibody, V domains shown)
VH: EVQLLESGGGLVQPGGSLRLSCAASGFTFSSYPMSWVRQAPGKGLEWVSAISGYGGSTYYADSVKGRFTISRDNSKNTLYLQMNSLRAEDTAVYYCARVVGYVYDGSYGGGMDYWGQGTLVTVSS
VL: B1 VL with S30W
Kd [11]: 7.3 nM
EC50 [12]: 0.0303 µg/mL

B9: YU772-G12 (antibody, V domains shown)
VH: B8 VH with T28P, S31T, P33A, Y54S, S57Y, D105G
VL: B1 VL
Kd [11]: 8.7 nM
EC50 [12]: 0.0213 µg/mL

B11: YU772-A11 (antibody, V domains shown)
VH: B8 VH with P33A, Y54S, S57Y, S107A
VL: B1 VL
Kd [11]: 7.9 nM
EC50 [12]: 0.0314 µg/mL

B12: YU772-G04_VH-YU771-A09-VL (antibody, V domains shown)
VH: B8 VH with T28P, P33A, Y54S, S57T, V100A, Y104H, D105R, S107F
VL: B1 VL with S30Y, Y32H, S53T, G91A
Kd [11]: 8.8 nM
EC50 [12]: 0.0257 µg/mL

Second part, the binder after the results:

Kd [11]: 7.6 nM
EC50 [12]: 0.0249 µg/mL
B2: YU772-F11 (antibody, V domains shown)
VH: B8 VH with S31T, Y54S, D105R
VL: B1 VL

Kd [11]: 11 nM
EC50 [12]: 0.022 µg/mL
B4: YU771-A01 (antibody, V domains shown)
VH: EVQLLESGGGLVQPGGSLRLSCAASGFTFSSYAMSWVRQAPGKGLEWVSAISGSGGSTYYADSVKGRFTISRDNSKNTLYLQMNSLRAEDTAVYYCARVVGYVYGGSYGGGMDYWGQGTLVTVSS
VL: B1 VL with A50G, S53F, S56Y

Kd [11]: 16 nM
EC50 [12]: 0.0244 µg/mL
B6: YU771-B12 (antibody, V domains shown)
VH: B8 VH with D105G
VL: B1 VL

Kd [11]: 12 nM
EC50 [12]: 0.03 µg/mL
B10: YU772-H05 (antibody, V domains shown)
VH: B8 VH with P33A, Y54S, S57T, Y104F, D105G, S107Y
VL: B1 VL

Kd [11]: 7.8 nM
EC50 [12]: 0.0225 µg/mL
B13: YU772-D10 (antibody, V domains shown)
VH: B8 VH
VL: B1 VL
